Paper PMC2677881

Target: T1, NtbZIP (Nicotiana tabacum, UniProt Q4PKH1 1-400)
T1 sequence: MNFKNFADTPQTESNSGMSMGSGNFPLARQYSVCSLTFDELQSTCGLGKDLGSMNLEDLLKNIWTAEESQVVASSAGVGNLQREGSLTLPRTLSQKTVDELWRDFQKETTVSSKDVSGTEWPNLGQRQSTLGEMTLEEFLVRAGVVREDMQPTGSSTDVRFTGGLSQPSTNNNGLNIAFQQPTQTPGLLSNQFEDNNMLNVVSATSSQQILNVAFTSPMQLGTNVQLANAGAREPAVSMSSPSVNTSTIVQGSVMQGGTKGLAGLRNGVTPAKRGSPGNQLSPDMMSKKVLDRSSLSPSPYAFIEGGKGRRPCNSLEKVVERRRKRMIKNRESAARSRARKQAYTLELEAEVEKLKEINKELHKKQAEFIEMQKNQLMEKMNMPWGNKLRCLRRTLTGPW
Assay: EMSA

B1: 4x G-box of PNZIP promoter (dsDNA)
DNA 1: GCCACGTGTCGCCACGTGTCGCCACGTGTCGCCACGTGTC
DNA 2: GACACGTGGCGACACGTGGCGACACGTGGCGACACGTGGC
  binding result: binds
